Consider one molecule from publication doi:10.1101/2024.04.19.590298 (bioRxiv, 2024).

The target of test [1] is T1, recombinant SARS-CoV-2 nucleocapsid protein (SARS-CoV-2 (reference sequence …, UniProt P0DTC9)).
T1 construct: SARS-CoV-2 nucleocapsid protein; also called NP; SARS-CoV-2 NP
The experiment in a line: ELISA; peptide competition ELISA: plate coated with 0.1 ug/ml recombinant NP overnight at 4°C; 40 μL mBG17 pre-incubated 1 h at room temperature with 40 μg (approximately 30 nMol) of a single peptide, then applied to the plate 1 h at room temperature; goat anti-mouse HRP, A450; triplicate. The following applies: both partners purified. For orientation: An ELISA detects its analyte on a solid surface through an enzyme-linked reagent.

Test [2] deals with T2, Nucleocapsid a. a. 401–410 (Frag 5) (SARS-CoV-2 (YP_009724397 reference)).
T2 construct: SARS-CoV-2 nucleocapsid protein, residues 401-410; also called Fragment 5; WT (a.a. 401–410) peptide; source: synthetic peptide (Thermo Scientific)
T2 chain: DDFSKQLQQS
The description is as above. Conditions: both partners purified.

B1: anti-SARS-CoV-2 nucleocapsid protein (NP) monoclonal mouse antibody mBG17 (recombinant) (antibody, V domains shown)
VH: EVKLEESGGGLVQPGGSMKFSCVASGFTFSDYWMNWVRQSPDKGLEWVAEIRLKSNNYATHYAASVKGRFTISRDDSKSSVYLQMNNLRAEDSGIYYCTRSAMDYWGQGTSVTVSS
VL: DIVMSQSPSSLAVSVGEKITMSCKSSQSLLYTSDQKNYLAWFQQKPGQSPKLLIFWASTRDSGVPDRFTGSGSGTDFTLTISSVKAEDLAVYYCQQFYNYPRTFGGGTKLEIK
notes: Whole antibody, detected with goat anti-mouse HRP; The scFv forms were used in calculations only; also called recombinant mBG17
Regarding B1, the binding result in test [1] and in test [2] was “binds” throughout.
